The target in assay [1] is T1, epithelial cell adhesion molecule (EpCAM) on EpCAM-expressing MCF-7 cells (human, UniProt P16422 24-314).
T1 construct: whole, on cells; also called cellular EpCAM; EpCAM+ MCF-7 cells
T1 sequence (looked up): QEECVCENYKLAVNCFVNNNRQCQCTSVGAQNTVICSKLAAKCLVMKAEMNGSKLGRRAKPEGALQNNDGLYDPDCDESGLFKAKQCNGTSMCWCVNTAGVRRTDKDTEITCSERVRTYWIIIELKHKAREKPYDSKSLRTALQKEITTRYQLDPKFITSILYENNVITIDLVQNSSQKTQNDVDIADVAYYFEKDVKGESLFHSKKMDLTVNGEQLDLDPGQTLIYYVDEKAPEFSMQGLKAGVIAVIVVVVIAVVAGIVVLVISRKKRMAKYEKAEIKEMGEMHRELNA
Description: flow cytometry titration of unmodified parent ligand on MCF-7 cells.

Assay [2] concerns the target T1, epithelial cell adhesion molecule …. Description: flow cytometry titration of biotinylated ligand on EpCAM+ MCF-7 cells. On the technique in general: A flow cytometer gives signals particle by particle.
Assay [3] shares this target. Nature of the assay: flow cytometry, multiple affinity titrations on EpCAM+ MCF-7 cells.
Assay [4] shares this target. Description: flow cytometry titration of soluble clone on MCF-7 cells.
The target is the same in assay [5]. Description: flow cytometry titration on EpCAM-expressing MCF-7 cells, anti-MYC detection; apparent (multivalent) Kd. Here is the method:
The apparent affinity and selectivity of the Fn3 and mSA/Fn3 CSANs was determined by flow cytometry, as previously described (Stern, et al., ACS Combinatorial Science 2017, 19 (5), 315-323). Briefly, EpCAM-expressing MCF-7 cells and EpCAM-negative U-87 MG cells were cultured to approximately 80% confluency, detached, and counted, as described above. Aliquots of 5×10⁴ cells were washed with PBSA (PBS with 0.1% w/v bovine serum albumin) and labeled with varying concentrations of Fn3 or mSA/Fn3 CSANs for ≥90 min at 4° C. Cells were then pelleted (500 g, 5 min, 4° C.) and resuspended in 50 μL anti-MYC (clone 9E10) Alexa Fluor 647 conjugate (Thermo Fisher Scientific, Cat: MA1-980-A647; 5 μg/mL in PBSA). After incubating at 4° C. for ≥30 min in the dark, cells were again pelleted and washed thrice with 1 mL cold PBSA before the fluorescence was analyzed on an LSR II flow cytometer (BD Biosciences).

Assay [6] has the same target. Nature of the assay: flow cytometry titration on EpCAM+ MCF-7 cells.

B1: EpCAM-binding fibronectin clone C8 (parent ligand) (designed binder)
chain: SSDSPRNLEVTNATPNSLTISWDYPNSASYYRITYSETGGNSPSQEFTVPGNTYNATISGLKPGQDYIITVYAVTYRDNYSYSNLISINYRTEIDKPSQHHHHHH
notes: also called C08
Consider B1, for which the Kd in assay [1] is 11 nM.

B2: non-specifically biotinylated fibronectin clone C8 (designed binder)
chain: SSDSPRNLEVTNATPNSLTISWDYPNSASYYRITYSETGGNSPSQEFTVPGNTYNATISGLKPGQDYIITVYAVTYRDNYSYSNLISINYRTEIDKPSQHHHHHH
modifications: non-specific biotinylation of primary amines (N-terminus, lysines) with EZ-Link Sulfo-NHS-Biotin
notes: also called biotin-C08; biotin-C8
In assay [2], B2 came in with a Kd of 5.7 nM.

B3: non-specifically biotinylated fibronectin clone B22 (designed binder)
chain: SSDSPRNLEVTNATPNSLTISWDDYTSASYYRITYGETGGNSPSQEFTVPGNTYNATVSGLRPGQDYIITVYAVTYRDNYSYSNPISINYRTEIDKPSQHHHHHH
modifications: non-specific biotinylation of primary amines (N-terminus, lysines) with EZ-Link Sulfo-NHS-Biotin
notes: also called biotin-B22
For the molecule B3, the Kd in assay [2] is 1700 nM.

B4: NODAGA-Fn-C5 (Fn_C5_G65C conjugated to maleimide-NODAGA) (designed binder)
chain: SSDSPRNLEVTNATPNSLTISWDNSNYASYYRITYGETGGNSPSQELTVPGSTYNATISGLKPCQDYIITVYAVTYRDNYSYSNLISINYRSEIDKPSQHHHHHH
modifications: maleimide-NODAGA on the engineered cysteine (G65C, position as in SEQ ID NO: 1)
notes: Single NODAGA per domain by MALDI-MS; also called Fn 3.4.5 G65C NODAGA conjugate
For B4, the Kd in assay [3] stood at 14 nM.

B5: EpCAM-binding fibronectin clone B22 (parent ligand) (designed binder)
chain: SSDSPRNLEVTNATPNSLTISWDDYTSASYYRITYGETGGNSPSQEFTVPGNTYNATVSGLRPGQDYIITVYAVTYRDNYSYSNPISINYRTEIDKPSQHHHHHH
For the molecule B5, in assay [1], the Kd is 1100 nM.

B6: non-specifically biotinylated fibronectin clone C10 (designed binder)
chain: SSDSPRNLEVTNATPNSLTISWDDPDFASYYRITYGETGGSSPSQEFTVPGNTYSATISGLKPGRDHTITVYAVTYRDNYSYSNPISINYRTEIDKPSQHHHHHH
modifications: non-specific biotinylation of primary amines (N-terminus, lysines) with EZ-Link Sulfo-NHS-Biotin
notes: also called biotin-C10
In assay [2], B6 yielded a Kd of 9.7 nM.

B7: EpCAM-binding fibronectin clone C10 (parent ligand) (designed binder)
chain: SSDSPRNLEVTNATPNSLTISWDDPDFASYYRITYGETGGSSPSQEFTVPGNTYSATISGLKPGRDHTITVYAVTYRDNYSYSNPISINYRTEIDKPSQHHHHHH
As to B7, the Kd in assay [1] came to 25 nM.

B8: EpCAM-binding fibronectin (Fn3) clone C5 (designed binder)
chain: SSDSPRNLEVTNATPNSLTISWDNSNYASYYRITYGETGGNSPSQELTVPGSTYNATISGLKPGQDYIITVYAVTYRDNYSYSNLISINYRSEIDKPSQHHHHHH
notes: Soluble domain made in E. coli; also called Fn 3.4.5; Fn C5
As for B8, the Kd in assay [4] amounted to 17 nM.

B9: Fn3 CSANs (DHFR^2-Fn3 fusion proteins with clone C5, oligomerized with bisMTX) (designed binder)
chain: MGEQKLISEEDLGGSGGGSGGGISLIAALAVDRVIGMENAMPWNLPADLAWFKRNTLNKPVIMGRHTWESIGRPLPGRKNIILSSQPGTDDRVTWVKSVDEAIAAAGDVPEIMVIGGGRVYEQFLPKAQKLYLTHIDAEVEGDTHFPDYEPDDWESVFSEFHDADAQNSHSYSFEILERRGGISLIAALAVDRVIGMENAMPWNLPADLAWFKRNTLNKPVIMGRHTWESIGRPLPGRKNIILSSQPGTDDRVTWVKSVDEAIAAAGDVPEIMVIGGGRVYEQFLPKAQKLYLTHIDAEVEGDTHFPDYEPDDWESVFSEFHDADAQNSHSYSFEILERRGELGGGGSGGGGSGGGGSASSSDSPRNLEVTNATPNSLTISWDNSNYASYYRITYGETGGNSPSQELTVPGSTYNATISGLKPGQDYIITVYAVTYRDNYSYSNLISINYRSEIDKPSQGSHHHHHH
notes: Multivalent nanoring; also called EpCAM-targeted Fn3 CSANs; monospecific Fn3 CSANs
Regarding B9, the Kd in assay [5] is 21 nM.

B10: bispecific mSA/Fn3 CSANs (co-assembled mSA-DHFR^2 and DHFR^2-Fn3 subunits) (designed binder)
chain 1: MGEQKLISEEDLGGSGGGSGGGISLIAALAVDRVIGMENAMPWNLPADLAWFKRNTLNKPVIMGRHTWESIGRPLPGRKNIILSSQPGTDDRVTWVKSVDEAIAAAGDVPEIMVIGGGRVYEQFLPKAQKLYLTHIDAEVEGDTHFPDYEPDDWESVFSEFHDADAQNSHSYSFEILERRGGISLIAALAVDRVIGMENAMPWNLPADLAWFKRNTLNKPVIMGRHTWESIGRPLPGRKNIILSSQPGTDDRVTWVKSVDEAIAAAGDVPEIMVIGGGRVYEQFLPKAQKLYLTHIDAEVEGDTHFPDYEPDDWESVFSEFHDADAQNSHSYSFEILERRGELGGGGSGGGGSGGGGSASSSDSPRNLEVTNATPNSLTISWDNSNYASYYRITYGETGGNSPSQELTVPGSTYNATISGLKPGQDYIITVYAVTYRDNYSYSNLISINYRSEIDKPSQGSHHHHHH
chain 2: MAEAGITGTWYNQSGSTFTVTAGADGNLTGQYENRAQGTGCQNSPYTLTGRYNGTKLEWRVEWNNSTENCHSRTEWRGQYQGGAEARINTQWNLTYEGGSGPATEQGQDTFTKVKELGGSGGGSGGGSGGMISLIAALAVDRVIGMENAMPWNLPADLAWFKRNTLNKPVIMGRHTWESIGRPLPGRKNIILSSQPGTDDRVTWVKSVDEAIAAAGDVPEIMVIGGGRVYEQFLPKAQKLYLTHIDAEVEGDTHFPDYEPDDWESVFSEFHDADAQNSHSYSFEILERRGMISLIAALAVDRVIGMENAMPWNLPADLAWFKRNTLNKPVIMGRHTWESIGRPLPGRKNIILSSQPGTDDRVTWVKSVDEAIAAAGDVPEIMVIGGGRVYEQFLPKAQKLYLTHIDAEVEGDTHFPDYEPDDWESVFSEFHDADAQNSHSYSFEILERRGGSGGGSGGGSGGDYKDDDDK
notes: Stochastic mixture of the two subunits oligomerized with bisMTX; also called mSA/Fn3 bispecific CSANs
B10: the Kd in assay [5] was 24 nM.

B11: mixed, reduced valency CSANs of 1DD-FnC5-v4 and 1DD-FnNT-v4 subunits (designed binder)
chain 1: MGEQKLISEEDLGGSGGGSGGGISLIAALAVDRVIGMENAMPWNLPADLAWFKRNTLNKPVIMGRHTWESIGRPLPGRKNIILSSQPGTDDRVTWVKSVDEAIAAAGDVPEIMVIGGGRVYEQFLPKAQKLYLTHIDAEVEGDTHFPDYEPDDWESVFSEFHDADAQNSHSYSFEILERRGGISLIAALAVDRVIGMENAMPWNLPADLAWFKRNTLNKPVIMGRHTWESIGRPLPGRKNIILSSQPGTDDRVTWVKSVDEAIAAAGDVPEIMVIGGGRVYEQFLPKAQKLYLTHIDAEVEGDTHFPDYEPDDWESVFSEFHDADAQNSHSYSFEILERRGELGGSGGGGSGGGGSGGGGSGGGGSGGGGSGGGGSGGGGSGGGGSGGASSSDSPRNLEVTNATPNSLTISWDNSNYASYYRITYGETGGNSPSQELTVPGSTYNATISGLKPGQDYIITVYAVTYRDNYSYSNLISINYRSEIDKPSQGSHHHHHH
chain 2: MGEQKLISEEDLGGSGGGSGGGISLIAALAVDRVIGMENAMPWNLPADLAWFKRNTLNKPVIMGRHTWESIGRPLPGRKNIILSSQPGTDDRVTWVKSVDEAIAAAGDVPEIMVIGGGRVYEQFLPKAQKLYLTHIDAEVEGDTHFPDYEPDDWESVFSEFHDADAQNSHSYSFEILERRGGISLIAALAVDRVIGMENAMPWNLPADLAWFKRNTLNKPVIMGRHTWESIGRPLPGRKNIILSSQPGTDDRVTWVKSVDEAIAAAGDVPEIMVIGGGRVYEQFLPKAQKLYLTHIDAEVEGDTHFPDYEPDDWESVFSEFHDADAQNSHSYSFEILERRGELGGSGGGGSGGGGSGGGGSGGGGSGGGGSGGGGSGGGGSGGGGSGGASSSDSPRNLEVTNATPNSLTISWDAPAVTVRYYRITYGETGGNSPSQEFTVPGSKSTATISGLKPGQDYTITVYAVTGRDGSPASSKPISINYRTEIDKPSQGSHHHHHH
notes: Nanoring co-assembled with the chemical dimerizer bis-methotrexate
As to B11, the binding result in assay [6] was “binds”.

B12: mixed, reduced valency CSANs of 1DD-FnB22-v4 and 1DD-FnNT-v4 subunits (designed binder)
chain 1: MGEQKLISEEDLGGSGGGSGGGISLIAALAVDRVIGMENAMPWNLPADLAWFKRNTLNKPVIMGRHTWESIGRPLPGRKNIILSSQPGTDDRVTWVKSVDEAIAAAGDVPEIMVIGGGRVYEQFLPKAQKLYLTHIDAEVEGDTHFPDYEPDDWESVFSEFHDADAQNSHSYSFEILERRGGISLIAALAVDRVIGMENAMPWNLPADLAWFKRNTLNKPVIMGRHTWESIGRPLPGRKNIILSSQPGTDDRVTWVKSVDEAIAAAGDVPEIMVIGGGRVYEQFLPKAQKLYLTHIDAEVEGDTHFPDYEPDDWESVFSEFHDADAQNSHSYSFEILERRGELGGSGGGGSGGGGSGGGGSGGGGSGGGGSGGGGSGGGGSGGGGSGGASSSDSPRNLEVTNATPNSLTISWDDYTSASYYRITYGETGGNSPSQEFTVPGNTYNATVSGLRPGQDYIITVYAVTYRDNYSYSNPISINYRTEIDKPSQGSHHHHHH
chain 2: MGEQKLISEEDLGGSGGGSGGGISLIAALAVDRVIGMENAMPWNLPADLAWFKRNTLNKPVIMGRHTWESIGRPLPGRKNIILSSQPGTDDRVTWVKSVDEAIAAAGDVPEIMVIGGGRVYEQFLPKAQKLYLTHIDAEVEGDTHFPDYEPDDWESVFSEFHDADAQNSHSYSFEILERRGGISLIAALAVDRVIGMENAMPWNLPADLAWFKRNTLNKPVIMGRHTWESIGRPLPGRKNIILSSQPGTDDRVTWVKSVDEAIAAAGDVPEIMVIGGGRVYEQFLPKAQKLYLTHIDAEVEGDTHFPDYEPDDWESVFSEFHDADAQNSHSYSFEILERRGELGGSGGGGSGGGGSGGGGSGGGGSGGGGSGGGGSGGGGSGGGGSGGASSSDSPRNLEVTNATPNSLTISWDAPAVTVRYYRITYGETGGNSPSQEFTVPGSKSTATISGLKPGQDYTITVYAVTGRDGSPASSKPISINYRTEIDKPSQGSHHHHHH
notes: as for B11
Take B12: the binding result in assay [6] is on record as “binds”.

B13: NODAGA-Fn-NT (Fn_NT_G65C non-targeted control conjugated to maleimide-NODAGA) (designed binder)
chain: SSDSPRNLEVTNATPNSLTISWDAPAVTVRYYRITYGETGGNSPSQEFTVPGSKSTATISGLKPCQDYTITVYAVTGRDGSPASSKPISINYRTEIDKPSQHHHHHH
modifications: maleimide-NODAGA on the engineered cysteine (G65C)
notes: Non-targeted scaffold with wild-type loops, G65C and RGD changed to RDG
Take B13: the binding result in assay [6] is “no binding”.

The values are drawn from patent publication US20180251524A1 (REGENTS OF THE UNIVERSITY OF MINNESOTA, published 2018).
